B1: Protein phosphatase 2C homolog 4 (Schizosaccharomyces pombe (strain ATCC 38366 / 972)), O14156 (parent)
chain: MSIRFLKRLRAPLYIQNAYCSKNYFYRSFIQYYSPSNGPYLKISMNKAPQSLGLCTARGDSPTNQDRMAYGYLNNLKDTTNRDSPFFYGLFDGHGGTECSEFLSTNLGKIIENQDLNDTEKILKEVHSVGGYMAGLKPPFSLRTVLQSRDEDLLWRARLYYSFLQADMDYLTNYARPSPDSAVPGAVGTVAIITSKNNLSYWESDSYIIHLAHVGDTRALLCDSRTGRAHRLTFQHHPADVEEARRLRRYNMGFSRDSFGQKRFAWVANTRSFGDGYKLKKLGVVAEPQLTSIHSLRDDWSFLTLLSDGITDVVSDDEVVDIIKLSESPQDAANNIIRYAQNVGAVDDITCLVVRLPGWKKRTINDFTKNLRLEKSAYHPRRS
partner: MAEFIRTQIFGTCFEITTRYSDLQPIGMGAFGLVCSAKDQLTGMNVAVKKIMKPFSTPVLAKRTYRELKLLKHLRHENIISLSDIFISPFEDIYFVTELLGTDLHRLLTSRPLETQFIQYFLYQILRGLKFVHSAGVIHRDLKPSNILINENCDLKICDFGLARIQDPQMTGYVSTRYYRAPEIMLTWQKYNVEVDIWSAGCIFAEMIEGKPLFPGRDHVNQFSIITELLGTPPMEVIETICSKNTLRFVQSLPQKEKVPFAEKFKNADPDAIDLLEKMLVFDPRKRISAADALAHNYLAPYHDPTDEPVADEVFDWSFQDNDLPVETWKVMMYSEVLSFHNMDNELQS

Key:
Details in all cases: with hog1_schpo sty1, Q09892
[1] = variants of: B1
[2] = variants of: B1; remark: listed apart in the source
[3] = variants of: B1; remark: listed apart in the source

effect of a mutation on the interaction [1] | effect of a mutation on the interaction [2] | effect of a mutation on the interaction [3] | Variant
disrupting interaction | decreasing interaction |  | R8A
disrupting interaction | decreasing interaction |  | R10A
disrupting interaction |  | decreasing interaction | R27A

From IntAct's records for PubMed 22139357
